The target of experiment [1] is T1, recombinant ILT2 (human) (human, UniProt Q8NHL6 24-461).
T1 construct: also called recombinant ILT2 peptide; ILT2 protein
The experiment can be described thus: binding ELISA, hILT2-Fc; positive control is GHI/75 by paragraph 244. (In general: ELISA stands for enzyme-linked immunosorbent assay.)

Experiment [2] has as its target T2, LILRA1 (UniProt O75019 17-461, limits assumed). The experiment can be described thus: binding ELISA, column hLILRA1-His; negative control.
Experiment [3] deals with T3, ILT6 (UniProt Q8N6C8 24-439, limits assumed). The experiment can be described thus: binding ELISA, column hILT6-His; negative control.
Experiment [4] concerns the target T1, recombinant ILT2 (human). As to the kind of experiment: binding ELISA, hILT2-Fc; negative control.
In experiment [5] the target is T4, PIRB (UniProt P97484 25-642, limits assumed).
T4 sequence (looked up): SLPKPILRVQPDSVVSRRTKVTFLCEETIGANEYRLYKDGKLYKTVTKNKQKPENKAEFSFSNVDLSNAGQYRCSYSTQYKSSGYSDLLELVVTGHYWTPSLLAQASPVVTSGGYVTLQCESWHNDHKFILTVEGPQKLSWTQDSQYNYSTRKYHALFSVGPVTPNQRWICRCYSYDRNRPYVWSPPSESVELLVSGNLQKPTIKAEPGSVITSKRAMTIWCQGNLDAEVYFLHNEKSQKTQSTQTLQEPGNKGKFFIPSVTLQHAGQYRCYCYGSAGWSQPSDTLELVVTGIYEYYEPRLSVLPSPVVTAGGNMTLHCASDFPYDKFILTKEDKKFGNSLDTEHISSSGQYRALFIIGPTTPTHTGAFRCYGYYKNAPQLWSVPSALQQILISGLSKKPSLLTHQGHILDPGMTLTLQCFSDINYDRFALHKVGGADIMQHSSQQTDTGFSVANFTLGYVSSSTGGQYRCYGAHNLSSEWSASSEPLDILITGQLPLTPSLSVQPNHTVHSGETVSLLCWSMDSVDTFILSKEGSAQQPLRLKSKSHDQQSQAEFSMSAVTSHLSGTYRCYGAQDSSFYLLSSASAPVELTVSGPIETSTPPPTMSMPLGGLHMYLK
The experiment can be described thus: binding ELISA, column PIRB; negative control.

Experiment [6] has as its target T5, human ILT2 fused to mouse CD3 zeta chain, on BW cells (human; mouse).
T5 construct: domain: trans-membrane and cytoplasmic residues; also called BW-ILT2; BW/ILT2z
As to the kind of experiment: flow cytometry on BW cells transfected with human ILT2; fold above background (FAB) [left panel]. In general terms: Flow cytometry measures light scatter and fluorescence of single cells or particles in a stream.

The target in experiment [7] is T6, biotinylated recombinant human ILT2-Fc (human, UniProt Q8NHL6 24-458, limits assumed, conjugated with biotin (sites not given)).
T6 construct: Bought (Sino Biologics); the order of the parts is therefore uncertain; also called ILT2-biotin; biotinylated ILT2; not shown: Fc portion of human IgG1
The experiment can be described thus: flow cytometry blocking assay: ILT2-biotin binding to cells expressing HLA-G [left panel]. Here is the method:
(§1) Flow cytometry blocking assay—Recombinant human ILT2 protein fused with the Fc portion of human IgG1 at the N terminal was conjugated with biotin (Innova bioscience). A total of 5×10⁵ A375/HLA-G1 cells were incubated in a volume of 100 μL in the presence of anti-ILT2 clone #1 or isotype matched control mAb and ILT2-Fc conjugated with biotin (10 μg/mL) for 30 minutes at room temperature. After several washing steps, streptavidin-PE was added at a final concentration of 0.2 μg/mL and incubated for 30 min on ice followed by FACS analysis.
(§2) The ability of the generated anti-ILT2 antibodies to block the interaction between HLA-G and ILT2 was tested using four different assays. First, a blocking flow cytometry assay was performed. HLA-G transfected A375 cells were incubated with biotinylated ILT2 in the presence of the antibodies of the present disclosure and a positive control antibody. The commercially available anti-ILT2 antibody GHI/75 (BioLegend, Cat. No. 333704) was used as the positive control. The binding of ILT2-biotin to the cells was determined using Streptavidin-PE by flow cytometry analysis (FIG. 8A). The percent of blocking was determined by normalizing to a negative control (ILT2 binding in the presence of control IgG). […] The percentage of blocking was calculated at various concentrations of antibody (FIG. 8C).

Experiment [8] deals with T5, human ILT2 fused to mouse CD3 zeta …. The experiment can be described thus: cell-based or functional assay.
The target of experiment [9] is T6, biotinylated recombinant human ILT2-Fc. As to the kind of experiment: flow cytometry blocking assay: ILT2-biotin binding to cells expressing HLA-G [right panel]. On the procedure:
as §1, §2

For experiment [10] the target is unchanged. The experiment can be described thus: flow cytometry blocking assay: ILT2-biotin binding to cells expressing HLA-G. On the procedure:
as §1, §2

For experiment [11], the target named is T1, recombinant ILT2 (human). The experiment can be described thus: SPR (Biacore T200); KD relative to Control (chimeric 15G8). On the procedure:
(§3) During grafting of the 15G8 CDRs, five heavy chains and four kappa light chains were generated. These chains were designated VH1-5 and Vk1-4. By combining each heavy chain with each light chain twenty different resultant antibodies are possible. All twenty possible antibodies were transiently expressed in HEK EBNA cells, and the supernatants were tested for binding to recombinant ILT2 peptide using a Biacore T200. The chimeric 15G8 antibody was used as control.
A general note: SPR reads the build-up and loss of mass on a sensor chip optically.

The target of experiment [12] is T1, recombinant ILT2 (human). The experiment can be described thus: SPR (Biacore T200), HEK EBNA supernatants on recombinant ILT2 peptide. On the procedure:
as §3

In experiment [13] the target is T6, biotinylated recombinant human ILT2-Fc. The experiment can be described thus: B2M blocking ELISA: plate-bound recombinant human B2M-His, biotinylated ILT2-Fc at 20 µg/ml, titrated antibody, streptavidin-HRP; blocked ligand B2M. Here is the method: To test whether 15G8 can block the interaction between ILT2 and B2M, a B2M blocking ELISA was performed. 96 well nickel plates were coated with recombinant human B2M-His tag (3 μg/ml; Sino Biologics, 11976-H08H) overnight. Biotinylated ILT2-Fc (20 μg/ml; Sino Biologics, 1614-H02H; Innova Biosciences, 370-0010) was added for 2 hours at 37° C., which allowed ILT2 binding to B2M, in the presence or absence of titrated BND-22 or an irrelevant antibody (anti human CD28, Biolegend, 302934) (Ab range of 80-0.1 μg/ml, ×3 fold). ILT2 binding to B2M was detected by HRP conjugated streptavidin (R&D Systems, DY998). The absorbance was measured using an ELISA Reader (Biotek Synergy-H1 plate reader).

The target of experiment [14] is T3, ILT6. The experiment can be described thus: binding ELISA, column hILT6-His.
Experiment [15] concerns the target T4, PIRB. The experiment can be described thus: binding ELISA, column PIRB.
Experiment [16] has as its target T1, recombinant ILT2 (human). As to the kind of experiment: binding ELISA, hILT2-Fc.
The target of experiment [17] is T2, LILRA1. The experiment can be described thus: binding ELISA, column hLILRA1-His.

Where a chain is given by its changes, count along the chain named. Names may count otherwise.

T2 sequence (O75019 17-461 limits assumed): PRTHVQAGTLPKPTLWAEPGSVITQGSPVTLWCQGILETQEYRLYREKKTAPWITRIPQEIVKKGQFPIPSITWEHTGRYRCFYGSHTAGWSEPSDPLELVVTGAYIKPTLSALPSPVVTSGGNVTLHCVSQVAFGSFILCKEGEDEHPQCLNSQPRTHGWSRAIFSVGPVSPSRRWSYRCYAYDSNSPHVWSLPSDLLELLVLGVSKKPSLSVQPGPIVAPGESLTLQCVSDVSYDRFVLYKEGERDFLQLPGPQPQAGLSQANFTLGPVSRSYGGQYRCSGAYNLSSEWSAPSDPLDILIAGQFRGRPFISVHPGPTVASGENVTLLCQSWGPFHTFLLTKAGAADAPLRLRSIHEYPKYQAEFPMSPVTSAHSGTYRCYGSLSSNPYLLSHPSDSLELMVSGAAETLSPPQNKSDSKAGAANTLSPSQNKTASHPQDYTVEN
T1 sequence (Q8NHL6 24-461 limits assumed): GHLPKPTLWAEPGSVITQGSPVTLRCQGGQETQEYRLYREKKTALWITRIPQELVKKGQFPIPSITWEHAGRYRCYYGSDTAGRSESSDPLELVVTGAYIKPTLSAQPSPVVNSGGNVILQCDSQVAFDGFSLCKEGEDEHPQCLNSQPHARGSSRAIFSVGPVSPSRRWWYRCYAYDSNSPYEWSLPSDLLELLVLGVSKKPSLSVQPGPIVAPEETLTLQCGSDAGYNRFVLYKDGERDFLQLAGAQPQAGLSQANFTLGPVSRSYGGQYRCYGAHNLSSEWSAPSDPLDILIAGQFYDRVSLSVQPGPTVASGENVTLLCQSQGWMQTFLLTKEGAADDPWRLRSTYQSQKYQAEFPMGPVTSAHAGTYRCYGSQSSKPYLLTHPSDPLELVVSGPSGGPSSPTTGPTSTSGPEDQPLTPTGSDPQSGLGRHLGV
T6 sequence (Q8NHL6 24-458 limits assumed): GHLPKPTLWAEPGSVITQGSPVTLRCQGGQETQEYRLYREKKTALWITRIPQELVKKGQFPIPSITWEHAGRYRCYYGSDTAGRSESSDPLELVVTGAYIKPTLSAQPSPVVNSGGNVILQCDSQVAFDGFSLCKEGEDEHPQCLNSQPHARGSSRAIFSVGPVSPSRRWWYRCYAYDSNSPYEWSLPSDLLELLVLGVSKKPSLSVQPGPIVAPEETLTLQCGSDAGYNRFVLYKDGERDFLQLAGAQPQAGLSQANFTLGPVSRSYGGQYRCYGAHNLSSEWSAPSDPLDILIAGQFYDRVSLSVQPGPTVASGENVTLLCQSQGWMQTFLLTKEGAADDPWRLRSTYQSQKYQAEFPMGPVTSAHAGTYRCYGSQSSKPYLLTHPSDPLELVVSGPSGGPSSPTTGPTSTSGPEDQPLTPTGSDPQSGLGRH
T3 sequence (Q8N6C8 24-439 limits assumed): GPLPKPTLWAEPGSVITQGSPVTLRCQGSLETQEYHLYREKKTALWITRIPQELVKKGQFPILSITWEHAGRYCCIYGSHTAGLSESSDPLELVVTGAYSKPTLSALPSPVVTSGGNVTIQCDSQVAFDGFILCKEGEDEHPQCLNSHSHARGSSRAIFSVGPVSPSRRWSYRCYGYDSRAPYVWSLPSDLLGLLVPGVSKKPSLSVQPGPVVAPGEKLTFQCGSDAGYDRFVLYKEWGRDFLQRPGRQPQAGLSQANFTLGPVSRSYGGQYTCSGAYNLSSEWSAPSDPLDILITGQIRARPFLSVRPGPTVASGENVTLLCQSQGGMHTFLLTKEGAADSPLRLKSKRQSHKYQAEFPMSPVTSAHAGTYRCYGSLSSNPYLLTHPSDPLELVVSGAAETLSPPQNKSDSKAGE
T5 sequence (P24161 other isoform, or with tags, fused parts or gaps limits assumed): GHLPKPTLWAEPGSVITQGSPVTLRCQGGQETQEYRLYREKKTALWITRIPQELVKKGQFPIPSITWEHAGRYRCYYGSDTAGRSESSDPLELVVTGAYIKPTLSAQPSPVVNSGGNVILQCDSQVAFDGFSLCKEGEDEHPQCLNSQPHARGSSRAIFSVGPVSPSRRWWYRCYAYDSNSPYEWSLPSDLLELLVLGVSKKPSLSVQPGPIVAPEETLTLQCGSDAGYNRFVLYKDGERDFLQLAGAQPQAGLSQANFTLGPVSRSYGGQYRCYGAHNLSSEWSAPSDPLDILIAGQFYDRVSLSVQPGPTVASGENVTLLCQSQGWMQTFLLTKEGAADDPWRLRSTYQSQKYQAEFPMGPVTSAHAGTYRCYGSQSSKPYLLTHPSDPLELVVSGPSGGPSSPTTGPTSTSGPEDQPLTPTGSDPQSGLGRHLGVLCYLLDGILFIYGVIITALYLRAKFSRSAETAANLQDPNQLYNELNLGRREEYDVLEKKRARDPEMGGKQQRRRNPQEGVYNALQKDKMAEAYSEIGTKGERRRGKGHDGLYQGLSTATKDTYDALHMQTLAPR

“GHI/75 (commercial mouse anti-human ILT2 antibody, BioLegend Cat. No. 333704)”: the ELISA (OD) with recombinant ILT2 (human) [1] was 2.45 OD.

Turning to Negative, the ELISA (OD) in the experiment with LILRA1 [2] is 0.13 OD; with ILT6 [3], 0.071 OD; with recombinant ILT2 (human) [4], 0.05 OD; in the experiment with PIRB [5], 0.0575 OD.

B1: chimeric 19E3 (antibody, V domains shown)
VH: QVQLQQSGAELARPGASVKLSCKASGYTFTSYGISWVKQRTGQGLEWVGEIYPGSGNSYYNEKFKGKATLTADKSSSTAYMELRSLTSEDSAVYFCARSNDGYPDYWGQGTTLTVSS
VL: DIQMTQSSSYLSVSLGGRVTITCKASDHINNWLAWYQQKPGNAPRLLISGATSLETGVPSRFSGSGSGKDYTLSITSLQTEDVATYYCQQYWSTPWTFGGGTKLEIK
notes: Chimera of murine 19E3; also called chimeric murine 19E3
As usually defined, the EC50 (read off the curve) is the concentration that produces a half-maximal response. High values mean a less potent agent, low ones a more potent agent. Consider B1, for which the “EC50 (read off the curve)” value in experiment [6] was about 0.6 µg/mL. Moreover, the “IC50 (read off the curve)” value in experiment [7] is about 0.6 µg/mL.

B2: 15G8-13 (humanized 15G8, VH1/Vk3, alanine variant A108) (antibody, human IgG4 S228P, kappa, V domains shown)
VH: DVQLQGSGPGLVKPSETLSLTCSVTGYSITSGYYWNWIRQFPGKKLEWMGYISYDGSNNYNPSLKNRITISRDTSKNQFSLKLNSVTAADTATYYCAHGYSYYYAMDAWGQGTSVTVSS
VL: DIQMTQSPSSLSASVGDRVTITCRTSQDISNYLNWYQQKPGKAVKLLISYTSRLHSGVPSRFSGSGSGTDYTLTISSLQPEDFATYYCQQGNTLPTFGQGTKLEIKR
notes: Humanized IgG4 (S228P, L235E), kappa; also called 15G8 humanized antibody; BND-22
One may read the Kd as the concentration at which binding is half-saturated. What is called koff is the rate constant with which the complex falls apart. Broadly, the kon is the second-order rate constant of association. As to B2, the “IC50 (read off the curve) of Blocking (%) in the BW-ILT2 / A375-HLA-G mouse IL-2 reporter assay” value in experiment [8] was about 0.02 µg/mL. Also, the “IC50 (read off the curve)” value in experiment [9] was about 0.2 µg/mL. The “IC50 (read off the curve)” value in experiment [10] was about 0.3 µg/mL. Moreover, the “Relative KD” value with recombinant ILT2 (human) [11] worked out at 0.55. In addition, in the experiment with recombinant ILT2 (human) [12], the Kd is 6.94 nM, the koff amounted to 0.00905 s⁻¹ and the kon amounted to 1.3e+06 M⁻¹ s⁻¹. The “IC50 (read off the curve)” value in experiment [13] is about 8 µg/mL.

B3: chimeric 15G8 antibody (antibody, V domains shown)
VH: B2 VH with E16Q, T17S, K44N, T69S, S71T, S80F, A88S, A89E, A108C
VL: DIQMTQTTSSLSASLGDRVTISCRTSQDISNYLNWYQQKPDGTVKLLISYTSRLHSGVPSRFSGSGSGTDYSLTISNLEQEDIATYFCQQGNTLPTFGSGTKLEIK
notes: Chimeric form of murine 15G8
Take B3: the “IC50 (read off the curve)” value in experiment [9] is about 0.2 µg/mL. In addition, in the experiment with recombinant ILT2 (human) [11], the “Relative KD” value is 1. In the experiment with recombinant ILT2 (human) [12], the equilibrium dissociation constant (Kd) amounted to 12.6 nM, the koff was found to be 0.0102 s⁻¹ and the kon was determined as 808000 M⁻¹ s⁻¹.

B4: 15G8 (hybridoma-derived, murine) (antibody, V domains shown)
VH: B2 VH with E16Q, T17S, K44N, T69S, S71T, S80F, A88S, A89E, A108C
VL: B3 VL
notes: also called 15G8 antibody
For the molecule B4, the “ELISA (OD)” value was 0.07 OD with ILT6 [14], 0.08 OD in the experiment with PIRB [15], 1.11 OD with recombinant ILT2 (human) [16] and 0.14 OD with LILRA1 [17]. The binding result in the experiment with ILT6 [14], with PIRB [15] and with LILRA1 [17] was “no binding” each time.
